Test results: the Immune Epitope Database (IEDB)

Key:
[1] = biological target: HLA-A*31:01; experiment: IEDB peptide-MHC binding, purified MHC/direct/fluorescence; filed as Kd, often an IC50 or EC50 that approximates it; ≥ and ≤ were set here for values at or beyond the usual limits of such assays
[2] = biological target: HLA-B*15:01; experiment: as above
[3] = biological target: HLA-B*08:01; experiment: as above
[4] = biological target: HLA-B*40:01; experiment: as above
[5] = biological target: HLA-A*11:01; experiment: as above
[6] = biological target: HLA-B*07:02; experiment: as above
[7] = biological target: HLA-B*44:02; experiment: as above
[8] = biological target: HLA-A*02:01; experiment: as above
[9] = biological target: HLA-A*69:01; experiment: as above
[10] = biological target: HLA-B*27:05; experiment: as above
[11] = biological target: HLA-A*01:01; experiment: as above
[12] = biological target: HLA-A*03:01; experiment: as above
[13] = biological target: HLA-A*26:01; experiment: as above
[14] = biological target: HLA-B*58:01; experiment: as above
[15] = biological target: HLA-B*15:01; experiment: IEDB peptide-MHC binding, purified MHC/competitive/fluorescence; ≥ and ≤ were set here for values at or beyond the usual limits of such assays
[16] = biological target: HLA-A*24:02; experiment: as above
[17] = biological target: HLA-B*51:01; experiment: IEDB peptide-MHC binding, purified MHC/competitive/radioactivity; filed as Kd, often an IC50 or EC50 that approximates it; ≥ and ≤ were set here for values at or beyond the usual limits of such assays; conditions: source organism: Dengue virus 3 Martinique/1243/1999
[18] = biological target: HLA-B*07:02; experiment: as above
[19] = biological target: HLA-A*24:03; experiment: IEDB peptide-MHC binding, purified MHC/direct/fluorescence; filed as Kd, often an IC50 or EC50 that approximates it; ≥ and ≤ were set here for values at or beyond the usual limits of such assays; conditions: source organism: Pseudomonas aeruginosa UCBPP-PA14
[20] = biological target: HLA-A*02:01; experiment: IEDB peptide-MHC binding, purified MHC/competitive/radioactivity; filed as Kd, often an IC50 or EC50 that approximates it; ≥ and ≤ were set here for values at or beyond the usual limits of such assays
[21] = biological target: HLA-A*02:06; experiment: as above
[22] = biological target: HLA-A*68:02; experiment: as above
[23] = biological target: HLA-A*26:01; experiment: as above
[24] = biological target: HLA-B*53:01; experiment: as above; conditions: source organism: Dengue virus 4 Philippines/H241/1956
[25] = biological target: HLA-A*02:03; experiment: as above; conditions: source organism: Trypanosoma cruzi
[26] = biological target: HLA-A*02:02; experiment: as above; conditions: source organism: Trypanosoma cruzi
[27] = biological target: HLA-A*02:01; experiment: IEDB peptide-MHC binding, purified MHC/competitive/fluorescence; ≥ and ≤ were set here for values at or beyond the usual limits of such assays
[28] = biological target: HLA-B*46:01; experiment: IEDB peptide-MHC binding, purified MHC/competitive/fluorescence; filed as Kd, often an IC50 or EC50 that approximates it; ≥ and ≤ were set here for values at or beyond the usual limits of such assays; conditions: source organism: Entamoeba histolytica HM-1:IMSS
[29] = biological target: HLA-B*35:01; experiment: IEDB peptide-MHC binding, purified MHC/competitive/radioactivity; filed as Kd, often an IC50 or EC50 that approximates it; ≥ and ≤ were set here for values at or beyond the usual limits of such assays; conditions: source organism: Dengue virus 4 Philippines/H241/1956
[30] = source organism: Vibrio cholerae
[31] = source organism: Zaire ebolavirus
[32] = source organism: Pseudomonas aeruginosa UCBPP-PA14
[33] = source organism: Shigella flexneri
[34] = source organism: Dengue virus 3 Sri Lanka/1266/2000
[35] = source organism: Dengue virus 4 Philippines/H241/1956
[36] = source organism: Trypanosoma cruzi
[37] = source organism: Vaccinia virus Copenhagen

Sequence: AENKKFKLH
- Kd [1, 30]: ≥ 20 µM
- Kd [2, 30]: ≥ 20 µM
- Kd [3, 30]: ≥ 20 µM
- Kd [4, 30]: 2.71 µM
- Kd [5, 30]: ≥ 20 µM
- Kd [6, 30]: ≥ 20 µM
- Kd [7, 30]: ≥ 20 µM
- Kd [8, 30]: ≥ 20 µM
- Kd [9, 30]: ≥ 20 µM
- Kd [10, 30]: ≥ 20 µM
- Kd [11, 30]: ≥ 20 µM
- Kd [12, 30]: ≥ 20 µM
- Kd [13, 30]: ≥ 20 µM
- Kd [14, 30]: ≥ 20 µM

Sequence: AKHGEYAPF
- IC50 [15, 31]: ≥ 77.4 µM
- IC50 [16, 31]: 63.1 µM

Sequence: APIQDEERDI
- Kd [17]: ≥ 69.6 µM
- Kd ([18]; source organism: Dengue virus 3 Martinique/1243/1999): 5.06 µM

Sequence: ASDDLEHWQ
- Kd [1, 32]: ≥ 20 µM
- Kd [2, 32]: ≥ 20 µM
- Kd [3, 32]: ≥ 20 µM
- Kd [4, 32]: ≥ 20 µM
- Kd [19]: ≥ 20 µM
- Kd [5, 32]: ≥ 20 µM
- Kd [6, 32]: ≥ 20 µM
- Kd [8, 32]: ≥ 20 µM
- Kd [9, 32]: ≥ 20 µM
- Kd [10, 32]: ≥ 20 µM
- Kd [11, 32]: ≥ 20 µM
- Kd [12, 32]: ≥ 20 µM
- Kd [13, 32]: ≥ 20 µM
- Kd [14, 32]: ≥ 20 µM

Sequence: AVSGGLNTSV
- Kd ([20]; source organism: Lassa virus Josiah): ≥ 25 µM

Sequence: DMKKKMEDSV
- Kd ([21]; source organism: Homo sapiens): ≥ 72.5 µM
- Kd ([20]; source organism: Homo sapiens): 15 µM

Sequence: DRLHPPNKL
- Kd [1, 33]: ≥ 20 µM
- Kd [2, 33]: ≥ 20 µM
- Kd [3, 33]: ≥ 20 µM
- Kd [4, 33]: 4.25 µM
- Kd [5, 33]: ≥ 20 µM
- Kd [6, 33]: ≥ 20 µM
- Kd [7, 33]: ≥ 20 µM
- Kd [8, 33]: ≥ 20 µM
- Kd [9, 33]: ≥ 20 µM
- Kd [10, 33]: ≥ 20 µM
- Kd [11, 33]: ≥ 20 µM
- Kd [12, 33]: ≥ 20 µM
- Kd [13, 33]: ≥ 20 µM
- Kd [14, 33]: ≥ 20 µM

Sequence: ELEKSKRAL
- Kd ([22]; source organism: Homo sapiens): ≥ 54300 nM

Sequence: ETYQLWTALV
- Kd [22, 34]: 0.07 nM
- Kd [23, 34]: 0.0566 µM

Sequence: EVALLRTYCI
- Kd [22, 35]: 29.7 nM
- Kd [23, 35]: 6.17 µM

Sequence: FGMFTTNIW
- Kd [24]: 0.0205 µM

Sequence: FLSHDFTLV
- Kd [25]: 0.000142 µM
- Kd [21, 36]: 0.000765 µM
- Kd [26]: 0.0619 nM
- Kd [22, 36]: 636 nM

Sequence: FVEGVSGGAW
- Kd [24]: 0.209 µM

Sequence: GIGILTVIL
- Kd ([20]; source organism: Homo sapiens): 1 µM

Sequence: GQQFYWPVM
- IC50 [15, 31]: 1.52 µM
- IC50 [27, 31]: 5.74 µM
- IC50 [16, 31]: 0.114 µM

Sequence: GSFGDIYLA
- Kd ([20]; source organism: Homo sapiens): 0.232 µM

Sequence: GVPPKVVNY
- IC50 [15, 31]: ≥ 211 µM
- IC50 [27, 31]: ≥ 199 µM

Sequence: HMMKDEPVV
- IC50 [15, 31]: 46.3 µM
- IC50 [27, 31]: 8.76 µM

Sequence: HTIENTSANL
- Kd [22, 35]: 15 nM
- Kd [23, 35]: ≥ 48.9 µM

Sequence: IAKGIDAEF
- Kd [28]: 0.168 µM

Sequence: IPVTMTLWYM
- Kd [29]: 0.156 µM
- Kd [18, 35]: 0.744 µM
- Kd [24]: 0.0692 µM

Sequence: ISIKLTDSL
- IC50 [15, 37]: 5.59 µM
- IC50 [27, 37]: 7.32 µM
- IC50 [16, 37]: 3.66 µM
